Test results taken from the DeepSol protein solubility set.

Assay: soluble on expression in E. coli; label from the status in PepcDB or PDB records

Row | Sequence | soluble on expression in E. coli
1 | SDTFSTKSLALQAQKKVLSKMASKAMVAVFVDNTSSEVLDELYQATKEFTRSRKEAQRVVKNLVKVAVKLAVLLRADQLDSNELAQLQRFRGRVRSLAMTALSFHQVDFTFDRRVLATGLLECRDLLHQAIGPHLTAKSHGRINHIFSHFANGDFLAALYSPAEPYRSHLCRICDGLGRMLDEGGI | soluble
2 | GGELVLLPAPQIPLIMKIMKKHTPTWVPGVPTLYQKIVEAAERDGISISGVRNSFSGASSLPVETVARWEALTGGLLVEGYGLTETSPIIVGNPMTTDRRPGYVGVPFPDTEIRIANPDNLDETMPDGQEGEVLVRGPQVFSGYLNNPEATAKSFHGQWYRTGDVGIMEEDGFIRLVARIKEVIITGGFNVYPAEVEEVLRNHPDITDATVVGLPRGD | not soluble
3 | MGSDKIHHHHHHMKKMTILSAAVLMALGAPVAMAKVSEAEAAKLGAELTPQGAVKAGNADGSIPAWDGGITTAVAGYSQGMHHPDPFPTDKILFTITNANKAQYKDFLNPGQVKLFELYPETYKMNVYETRRTASVPQYVYDATKANATRAELIAQGNGISGATIGVPFPIPANGLEVIWNHVLRFRGVDLETNRSQASPTADGSYTLVETAEELRFEYSRPEITLDKLKETNTLFFFKQVVTQPARLAGTALLVKETMDQEALPRQAWTYNTGQRRVRKAPNIAFDTPGTVADGLRTTDDFDMFNGSPVRYNWELVGKKEMYIPYNDYKLHSDSLKYDQILKPGHINPDLVRWEKHRVWEVKATLKAGMRHIYKTRVFYIDEDSWQVSLTDMYDNRDELYRVANAHSINYYEVPTLWTTLEVFHDLQSRRYLAMGLDNEGRMYNFKANLTESNFTPDALRRAGIR | not soluble
4 | MDYDVLILGGGIIGCSVAYELSKYNLNIALIEKDFDIADDVSFVNTAIVYDGSECKDNLMSYLENMGNMMLPEITKKLNVPFKRVGHLTIADNDETVRIIEENYKRAKSRGINNIYLIDEKRAREIEPNYKGEIKKAMYSENIAVTSPYDLAIGFAEIAYDNGVSFRLEEIVLDIQSIAKGFKVTTNKNKFTCRFVINTTPGEHYTIDQDKDYEQKNALKTYYLLLNDEIKEKTSNIVVKLKNEEEFIIQKNTVNGDTLIGINSNNSLGFMKSLKIAKEMINSISRKHVKDIFYDNHNQDRLIIDDSRKNKGYIKVMGNHYGEVTIAPAVSKIICDEIIDKLNCSLNKNFVDKRREFYRFRELSNEERNELISLDKRYGKIVCLCNGISEGEIVDCIRRPLGARTVEGVKRRTGATFGTCHGAYCISKIINILARELEKKPTEIVEDSKNSKVLASRIKEFDRVLEHHHHHH | not soluble
5 | MYPVDLHMHTVASTHAYSTLSDYIAQAKQKGIKLFAITDHGPDMEDAPHHWHFINMRIWPRVVDGVGILRGIEANIKNVDGEIDCSGKMFDSLDLIIAGFHEPVFAPHDKATNTQAMIATIASGNVHIISHPGNPKYEIDVKAVAEAAAKHQVALEINNSSFLHSRKGSEDNCREVAAAVRDAGGWVALGSDSHTAFTMGEFEECLKILDAVDFPPERILNVSPRRLLNFLESRGMAPIAEFADL | soluble
6 | MSDETFMREAIALARANVEAGGRPFGAVLVRDGRVLARGVNQIHETHDPSAHAELQAIRQASQALGSPRLDGCVIYASGHPCPMCLAAMHLCGIQAAWFAYSNEDGEAFGLSTATLYAEMARPPQRQSLPLRALRPAGEEGLYRQWRQRQA | not soluble
7 | MAHHHHHHMDNSHFSKMLKECKIIGKSFTSTDADLLFSKVKAKEARKISFTEFKEKAIPEIAAKMKKTPADIEAMIANAAPKSSGTKADTVRFHDDKSTYTGAAKQGGPTNVDRNAGSLAGVVDRRQETINNRGFTA | soluble
8 | MGSDKIHHHHHHMERMSIKYFVNNNSLGPDRNISSVGFEEIPPNTSYPTLNHSAGYYFNPDKGRILTEYQLIYITEGEGVLETRSGGVFTIKRGMIFVLFPGEWHTYYPNYQTGWSHYWIGFCGPEVDSWMTNEYCSKESPVFKVGINDEIVSLFRKAIDVANEEPTLYQRVLSGLVTYLVALMCSIDKNLQVENDDFSSKIDYACVLMKELIDQPVSMQEIAKKAGMGYSLFRKLFKEQKNYAPVQYFQNLKIQKAIELLTTTTIPVKEIAYRLDFESPAYFSARFKKQTGKSPIEYREEFRIK | not soluble
9 | MSHRSPSVTPAVSVLIPAWNAVRHLPAALDGLLSQTFQDWEAVVVDDGSQDETPALLAAYAARDARIRPLHVEHGGIVHALNHGLLHVRGRHVARMDADDTCHPERLALQCHALDNAPHLGLVASRVTFGGDAAQCGGFVRYVDWTNSLLCHEDIALGRFRESPLVHPSVMFRRELIDRFGPYANGPFPEDYELWLRWLEAGVRMEKLPEHLLVWNDPPGRLTRTHDNYAEAGFVALRTRYLARWLCAHNPQHPDVWVIGAGKASRRRARPLCEHGIRIRAWVDIDPHKIGNIVEGLPVVGREAMPAPGQGFMLAFLAGHGAAEELELFLHGAGYLPGQDYLLASLEHHHHHH | soluble
10 | MSLDENLIEEIKLADDISKGYNAALNYLSYQLRTRKEVEDKLRSLDIHEDYISEIINKLIDLDLINDKNYAESYVRTMMNTSDKGPKVIKLNLSKKGIDDNIAEDALILYTDKLQVEKGVTLAEKLANRYSHDSYRNKQNKIKQSLLTKGFSYDIIDTIIQELDLIFDDDTEREILLEKANKLWSRYDNLDIKKRKFKIQQALFKQGFSFSNITSALDEIEDTNEGHHHHHH | soluble
11 | GPGSMVRIRSLAKELRQLELQKQTASLPPPRAASSDDVLDDATRSATSSRKPEAPSCSSSPRDGDILTNAAHASTTAEAEAVPSSSPASRTVAAAEPQPTSAFPLSQLSLSSPDGAHNRSRNSLYSLGGSRFNILLGGSHGDGGACRKSQVRKATRACASGGGKNGAATATATQVPQRRGEAGGSSLLEKGKDGEVVANPAPPLGTSSGIPTRPPFKRLLAQPFSHVLVCDFEATCASGSVHYPHEIIEFPVVVLDTATLRIVAEFHRYVRPLRNPKLTAFCTELTGITQEMVDVADPLPTVVAQFQDWLKTEVYPLCWMWARHYGPNRLSHNLKSEQRRFVYDEHTDAAKANTSAEAMVCMATDGPWDMRRFMHQCSVLRDGVDFPPVCYRYINVRHSYSDHFKCRQAKLTHMLKKMSMSFEGRRHSGIDDTRNIARVLAELFARGYRVHHVSTITYAHRGDAFLESNRAAQELLSEFGETDETHTSKHANAHKGGGRQRGVKRA | not soluble
12 | MGSDKIHHHHHHMKVTFGQQTTKVKQLADLLSQEISMGKYKSDCTLPSINKLSREYQVSRDTVFKAFIDLKDRGIIDSTPGKGYYVTNKLTNILLLLDEYSPFKYSLYNSFIKKLSINYKVDLLFHQYNERLFNTILRESIGRYNKYIVMNFDNEKLSPHLYKIDSSKLLLLDFGKFDKKDYSYVCQDFDDSFYHALAALKEHLRKYQRLVLLFPEDIKHPRSSCQYFNCFCQDYHIDSAIVENTDRIQVRKGEVYIAIRQIEVVNIIKQSRTTGLKCGEDFGLIAYNDTPAYEVIDQGITVLSINWEELGRKAAEFVLTGQEIRTYLPTEVHLRNSI | not soluble
13 | MAKGGKSPKGKKITLNVAKNCIKITFDGRKRLDLSKMGITTFPKCILRLNEIDELDLSRNMIRKIPDSISKFQNLRWLDLHSNYIDKLPESIGQMTSLLFLNVSNNRLTTNGLPVELNQLKNIRTVNLGLNHLDSVPTTLGALKELHEVGLHDNLLTSIPAGISKLPKLKKLNVKRNPFPKPDESDMFVDSIKRLENLYLVEEKDLCSSCLQKCQQARDKLNKIRSMAPSAPRKAIFSNLVSPNSTAKESQEEWSV | not soluble
14 | SASSEVARHLLFQSHMATKTTCMSSQGSDDEQIKRENIRSLTMSGHVGFESLPDQLVNRSIQQGFCFNILCVGETGIGKSTLIDTLFNTNFEDYESSHFCPNVKLKAQTYELQESNVQLKLTIVNTVGFGDQINKEESYQPIVDYIDAQFEAYLQEELKIKRSLFTYHDSRIHVCLYFISPTGHSLKTLDLLTMKNLDSKVNIIPVIAKADTVSKTELQKFKIKLMSELVSNGVQIYQFPTDDDTIAKVNAAMNGQLPFAVVGSMDEVKVGNKMVKARQYPWGVVQVENENHCDFVKLREMLICTNMEDLREQTHTRHYELYRRCKLEEMGFTDVGPENKPVSVQETYEAKRHEFHGERQRKEEEMKQMFVQRVKEKEAILKEAERELQAKFEHLKRLHQEERMKLEEKRRLLEEEIIAFSKKKATSEIFHSQSFLATGSNLRKDKDRKNSNFL | not soluble
